In patent US20260234242A1 (HAINAN SIMCERE ZAIMING PHARMACEUTICAL, published 2026):
Where a chain is given by its changes, count along the chain named.

B1: hCDH6-6-H3L1 (antibody, V domains shown)
VH: EVQLVQSGAEVKKPGASVKVSCKASGYTFTDYYMAWVRQAPRQGLEWMGYIFPNSGGTDYSQKFKGRVTMTVDKSTSTVYMELSSLRSEDTAVYYCARELGADYGDYYAMDHWGQGTTVTVSS
VL: DIQMTQSPSSLSASVGDRVTITCRASENIDSYLAWYQQKPGKSPKLLLYSATLLADGVPSRFSGSGSGTDYTLTISSLQPEDFATYYCQHYYRTPPTFGQGTKLEIK
notes: Humanized
B2: hCDH6-6-H1L5 (antibody, V domains shown)
VH: B1 VH with R42G
VL: DIVMTQSPLSLPVTPGEPASISCRASENIDSYLAWYLQKPGKSPQLLVYSATLLADGVPDRFSGSGSGTDFTLKISRVEAEDVGVYYCQHYYRTPPTFGQGTKLEIK
notes: Humanized
B3: hCDH6-6-H3L3 (antibody, V domains shown)
VH: B1 VH
VL: B1 VL with K45Q, L48V
notes: Humanized
B4: hCDH6-6-H3L2 (antibody, V domains shown)
VH: B1 VH
VL: B1 VL with L48V
notes: Humanized
B5: hCDH6-6-H3L5 (antibody, V domains shown)
VH: B1 VH
VL: B2 VL
notes: Humanized
B6: hCDH6-6-H3L4 (antibody, V domains shown)
VH: B1 VH
VL: B1 VL with L48V, T85R
notes: Humanized
B7: hCDH6-6-H2L5 (antibody, V domains shown)
VH: B1 VH with R42G, M70L
VL: B2 VL
notes: Humanized
B8: hCDH6-1-H2L1 (antibody, V domains shown)
VH: EVQLVQSGAEVKKPGSSVKVSCKASGYTFTNYWMHWVRQAPGQGLEWMGDIDPSHSETHYTQKFKDRVTITVDKSTSTAYMELSSLRSEDTAVYYCARGDLGRFDYWGQGTTVTVSS
VL: DIVMTQSPDSLAVSLGERATINCRASESVSIHGTHLMHWYQQKPGQPPKLLIYAASNLESGVPDRFSGSGSETDFTLTISSLQAEDVAVYYCQQSFEDPWTFGGGTKVEIK
notes: Humanized
B9: hCDH6-1-H4L1 (antibody, V domains shown)
VH: B8 VH with A40R
VL: B8 VL
notes: Humanized
B10: hCDH6-1-H3L2 (antibody, V domains shown)
VH: B8 VH with I70L
VL: B8 VL with P44S
notes: Humanized
B11: hCDH6-1-H3L3 (antibody, V domains shown)
VH: B8 VH with I70L
VL: DIQMTQSPSSLSASVGDRVTITCRASESVSIHGTHLMHWYQQKPGKPPKLLIYAASNLESGVPSRFSGSGSETDFTFTISSLQPEDIATYYCQQSFEDPWTFGGGTKVEIK
notes: Humanized
B12: hCDH6-1-H2L2 (antibody, V domains shown)
VH: B8 VH
VL: B8 VL with P44S
notes: Humanized
B13: hCDH6-1-H4L2 (antibody, V domains shown)
VH: B8 VH with A40R
VL: B8 VL with P44S
notes: Humanized
B14: hCDH6-1-H3L1 (antibody, V domains shown)
VH: B8 VH with I70L
VL: B8 VL
notes: Humanized

target: T1, human CDH6 on tumor cells (OVCAR3 cells, PA-1 cells) (human, UniProt P55285 54-790); test: FACS, OVCAR3 cells
T1 sequence: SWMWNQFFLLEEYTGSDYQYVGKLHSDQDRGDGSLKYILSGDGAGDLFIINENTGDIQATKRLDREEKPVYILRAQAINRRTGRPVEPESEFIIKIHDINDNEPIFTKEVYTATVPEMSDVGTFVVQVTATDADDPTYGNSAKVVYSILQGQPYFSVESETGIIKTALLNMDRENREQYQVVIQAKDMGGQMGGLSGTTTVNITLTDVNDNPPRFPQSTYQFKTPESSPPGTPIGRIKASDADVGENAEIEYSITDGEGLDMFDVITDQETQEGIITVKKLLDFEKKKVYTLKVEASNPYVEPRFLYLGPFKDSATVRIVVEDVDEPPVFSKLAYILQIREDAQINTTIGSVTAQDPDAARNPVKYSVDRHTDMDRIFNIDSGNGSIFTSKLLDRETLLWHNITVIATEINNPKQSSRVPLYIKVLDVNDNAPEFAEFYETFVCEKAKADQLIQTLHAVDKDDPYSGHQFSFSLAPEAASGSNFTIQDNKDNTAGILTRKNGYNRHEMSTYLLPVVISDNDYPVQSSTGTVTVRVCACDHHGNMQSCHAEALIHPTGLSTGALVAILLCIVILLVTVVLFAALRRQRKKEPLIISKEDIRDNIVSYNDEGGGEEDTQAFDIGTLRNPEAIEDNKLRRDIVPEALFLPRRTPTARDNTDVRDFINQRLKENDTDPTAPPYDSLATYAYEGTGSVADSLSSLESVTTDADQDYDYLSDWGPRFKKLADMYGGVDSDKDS
Protocol: (§1) OVCAR3 cells with high expression of CDH6 and PA-1 cells with moderate expression of CDH6 were used to detect the binding activity of the antibodies to the cells. […] The cells were washed once with PBS, counted, resuspended to 2×10⁶ cells/mL in an FACS buffer (PBS+2% FBS), and then added to a 96-well plate at 50 μL/well. The chimeric antibodies were diluted with FACS buffer (PBS+2% FBS) and added to the 96-well plate at 50 μL/well, and the plate was incubated at 4° C. for 1 h. […] The dilution was added to the 96-well plate at 50 μL/well, and the plate was incubated at 4° C. for 1 h. After the plates were centrifuged and washed 2 times with PBS, the cells were resuspended in an FACS buffer. The mean fluorescence intensity (MFI) was measured using FACS Canton II (BD). Analysis was performed by the GraphPad Prism software, data were fitted, and EC50 values were calculated. The chimeric antibodies tested had strong binding to both OVCAR3 cells and PA-1 cells.
(§2) According to the above sequences, heavy chain (HC) and light chain (LC) plasmids were constructed (the nucleic acid sequences encoding the VH and VL of the antibodies were recombined into an expression vector carrying a signal peptide (SEQ ID NO: 132, […]) and a heavy chain constant region/light chain constant region sequence to obtain recombinant plasmids expressing VH—CH1-Fc/VL-CL). According to the expression and purification methods in Example 2, the hCDH6-6 humanized antibodies were obtained, and the binding activity of the humanized antibodies was detected by ELISA and FACS (see 2.2 and 2.3 for the method).

Binder | EC50 [nM] | Max MFI [MFI]
B1 | 0.87 | 13700
B2 | 0.61 | 14200
B3 | 0.74 | 14300
B4 | 0.85 | 14600
B5 | 0.69 | 14200
B6 | 0.7 | 14500
B7 | 0.64 | 14600

target: T2, his-tagged human CDH6 extracellular region protein (hCDH6 ECD-his) (human, UniProt P55285 19-615); test: ELISA, coated antigen
T2 construct: also called Human CDH6-his; hCDH6-his; not shown: his tag
T2 sequence: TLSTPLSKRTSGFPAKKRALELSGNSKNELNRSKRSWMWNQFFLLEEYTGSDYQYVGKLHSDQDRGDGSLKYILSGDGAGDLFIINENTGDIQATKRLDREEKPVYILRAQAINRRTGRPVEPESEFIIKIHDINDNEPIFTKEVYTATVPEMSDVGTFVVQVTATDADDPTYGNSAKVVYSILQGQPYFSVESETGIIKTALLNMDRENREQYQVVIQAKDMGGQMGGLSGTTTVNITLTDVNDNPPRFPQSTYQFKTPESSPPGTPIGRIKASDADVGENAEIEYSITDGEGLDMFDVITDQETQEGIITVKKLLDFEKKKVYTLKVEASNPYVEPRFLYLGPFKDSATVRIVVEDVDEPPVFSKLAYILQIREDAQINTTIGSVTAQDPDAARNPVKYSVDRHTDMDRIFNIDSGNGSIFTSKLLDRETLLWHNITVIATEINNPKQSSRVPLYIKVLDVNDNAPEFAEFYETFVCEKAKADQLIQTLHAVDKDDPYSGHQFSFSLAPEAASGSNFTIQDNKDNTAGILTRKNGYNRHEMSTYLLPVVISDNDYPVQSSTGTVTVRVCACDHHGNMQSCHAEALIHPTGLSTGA
Protocol: (§3) Human CDH6 protein (hCDH6 ECD-his, conventionally synthesized), monkey CDH6 protein (cynoCDH6 ECD-his, conventionally synthesized; the cynoCDH6 ECD sequence was derived from Uniprot #A0A2K5TW62 (19-615)), and murine CDH6 protein (mCDH6 ECD-his, conventionally synthesized; the mCDH6 ECD sequence was derived from Uniprot #P97326 (19-615)) were diluted with PBS to a final concentration of 1 μg/mL, and added to a 96-well ELISA plate at 100 μL/well. The plate was incubated at 4° C. overnight. The next day, the plate was washed 3 times with a plate washing solution (PBS+0.01% (v/v) Tween 20), and a blocking buffer (PBS+0.01% (v/v) Tween 20+2% (w/w) BSA) was added for blocking at room temperature for 2 h. The blocking buffer was discarded, and the plate was washed 3 times. The chimeric antibodies were diluted with 1% BSA+PBS (purchased from Cytiva, Cat. No. SH30264.01) and added to the 96-well plate at 50 μL/well. After incubation at 37° C. for 2 h, the plate was washed 3 times with a plate washing solution. […] The plate was incubated at 37° C. for 1 h and then washed 5 times with a plate washing solution. A TMB substrate (purchased from Seracare, Cat. No. 5120-0077) was added at 50 μL/well and incubated at room temperature for 10 min, then a stop solution (1.0 N HCl) was added at 50 μL/well. OD450 nm values were read using a microplate reader (Biotek). Analysis was performed by the GraphPad Prism software, data were fitted, and EC50 values were calculated. The chimeric antibodies tested all had strong binding to the human CDH6 protein, the monkey CDH6 protein, and the murine CDH6 protein.
(§4) According to the above sequences, heavy chain (HC) and light chain (LC) plasmids were constructed (the nucleic acid sequences encoding the VH and VL of the antibodies were recombined into an expression vector carrying a signal peptide (SEQ ID NO: 132, […]) and a heavy chain constant region/light chain constant region sequence to obtain recombinant plasmids expressing VH—CH1-Fc/VL-CL).

Binder | EC50 [nM] | Max OD450 [OD450]
B1 | 0.05 | 2.02
B2 | 0.031 | 2.06
B3 | 0.031 | 2
B4 | 0.03 | 2.09
B5 | 0.043 | 1.97
B6 | 0.041 | 2.05
B7 | 0.026 | 2.1

target: T2, his-tagged human CDH6 extracellular …; test: ELISA, coated antigen; remark: another data set of the same source
Protocol: as §3
as §4, with “VH-CH1-Fc/VL-CL).” for “VH—CH1-Fc/VL-CL).”

Binder | EC50 [nM] | Max OD450 [OD450]
B8 | 0.046 | 2.65
B9 | 0.031 | 2.62
B10 | 0.026 | 2.58
B11 | 0.03 | 2.71
B12 | 0.026 | 2.63
B13 | 0.026 | 2.55
B14 | 0.026 | 2.6

target: T1, human CDH6 on tumor cells (OVCAR3 …); test: FACS, OVCAR3 cells; remark: another data set of the same source
Protocol: as §1
as §2, with “VH-CH1-Fc/VL-CL).” for “VH—CH1-Fc/VL-CL).”, “hCDH6-1” for “hCDH6-6”

Binder | EC50 [nM] | Max MFI [MFI]
B8 | 0.228 | 14500
B9 | 0.152 | 14000
B10 | 0.167 | 14300
B11 | 0.155 | 14600
B12 | 0.147 | 14300
B13 | 0.176 | 15200
B14 | 0.154 | 14600
